Laboratory results as given in patent US20170306050A1.

Columns and labels:
Assay in all cases: cell-based or functional assay
CXCL11 = molecular target: T1, CXCL11
T1 sequence (O14625 22-94, species assumed, looked up): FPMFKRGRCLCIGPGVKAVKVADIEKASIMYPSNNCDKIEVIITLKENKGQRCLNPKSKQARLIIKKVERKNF

CXCL10 = molecular target: CXCL10
CXCL9 = molecular target: T2, CXCL9
T2 sequence (Q07325 23-125, species assumed, looked up): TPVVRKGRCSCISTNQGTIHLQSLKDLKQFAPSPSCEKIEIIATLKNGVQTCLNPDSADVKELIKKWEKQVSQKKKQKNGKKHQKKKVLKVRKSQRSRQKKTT

Measured: in vitro enzymatic cleavage; T cell migration assay

Sequence of MMP9 (Example 10, in vitro enzymatic analyses) (enzyme) (P41245 108-730): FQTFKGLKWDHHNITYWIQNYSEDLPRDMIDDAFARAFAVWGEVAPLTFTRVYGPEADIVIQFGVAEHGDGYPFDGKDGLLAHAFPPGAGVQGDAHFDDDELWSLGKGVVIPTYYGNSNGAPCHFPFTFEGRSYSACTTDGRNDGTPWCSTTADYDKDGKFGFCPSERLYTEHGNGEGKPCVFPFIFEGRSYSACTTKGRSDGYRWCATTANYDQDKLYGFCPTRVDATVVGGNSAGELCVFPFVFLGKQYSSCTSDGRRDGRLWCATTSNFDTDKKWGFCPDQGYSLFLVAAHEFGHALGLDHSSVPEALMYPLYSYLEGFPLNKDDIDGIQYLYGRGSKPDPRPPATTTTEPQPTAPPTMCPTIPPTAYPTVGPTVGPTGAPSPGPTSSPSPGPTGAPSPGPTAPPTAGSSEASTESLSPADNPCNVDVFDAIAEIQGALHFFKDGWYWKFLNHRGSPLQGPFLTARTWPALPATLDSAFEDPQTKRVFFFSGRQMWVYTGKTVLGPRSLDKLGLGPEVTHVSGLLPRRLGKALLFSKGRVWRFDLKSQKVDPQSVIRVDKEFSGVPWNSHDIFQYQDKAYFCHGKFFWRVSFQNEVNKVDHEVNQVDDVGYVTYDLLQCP
Sequence of CXCL10 (P02778 22-98): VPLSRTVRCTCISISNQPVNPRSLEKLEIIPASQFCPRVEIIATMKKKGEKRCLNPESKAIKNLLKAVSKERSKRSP

MMP9 (Example 10, in vitro enzymatic analyses) (enzyme)
< 88%: all assays above
